# Data from IntAct's records for PubMed 23782464.
# B1: Bcl-2 homologous antagonist/killer (Homo sapiens), Q16611 (parent)
# chain: MASGQGPGPPRQECGEPALPSASEEQVAQDTEEVFRSYVFYRHQQEQEAEGVAAPADPEMVTLPLQPSSTMGQVGRQLAIIGDDINRRYDSEFQTMLQHLQPTAENAYEYFTKIATSLFESGINWGRVVALLGFGYRLALHVYQHGLTGFLGQVTRFVVDFMLHHCIARWIAQRGGWVAALNLGNGPILNVLVVLGVVLLGQFVVRRFFKS
# partner: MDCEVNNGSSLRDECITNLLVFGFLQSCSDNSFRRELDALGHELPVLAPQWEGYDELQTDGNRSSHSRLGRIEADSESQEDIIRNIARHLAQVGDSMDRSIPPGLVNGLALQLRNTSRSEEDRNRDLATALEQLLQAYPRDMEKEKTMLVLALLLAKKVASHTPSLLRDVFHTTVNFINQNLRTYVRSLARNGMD
# Variants of: B1
# Conditions: with bid_human BID
row,Variant,effect of a mutation on the interaction
1,Y110E,increasing interaction
